# Results reported in patent US20250034594A1, “RNA-GUIDED GENOME RECOMBINEERING AT KILOBASE SCALE” (THE BOARD OF TRUSTEES OF THE LELAND STANFORD JUNIOR …, priority 2021, published 2025).
# B1: SSAP_67: SEQ ID NO: 236 (protein)
# chain: TSQQLDTTHTINQQVTTFRHTLVQMKNEIAAALPAHMTGDRFLRLILTEVRKNPELAECSTESIFGGILTAAALGLEPGLNGECWLIPRKVGKGPGSRKEATFQVGYKGIIKLFWQNPLASYLDTGVVYANDAWKFRKGLDPILEHTPATGDRGAVRGYYAVVGLTTGARIFDFFTPKQISALRGTAGPNGGISDPEHWMERKTALLQVMKMAPKSTDLASAASVDGTVQTVEAAAQVAAASTGPVNPTTGEVLEAEPVEGGAA
# B2: SSAP_220: SEQ ID NO: 389; Amycolatopsis circi (protein, listed as Amycolatopsis circi)
# chain: ISQTVTTAVAQQKDSSPAALVRKYRTDFATVLPSHIKPETWLRIATGALRRSPQLANAAKRNPSSLLVALLEAARKGLEPGTEQFYLVPRKGKNGPEVLGITGYQGEVELMYRAGAVSSVKVEVVREHDTFAYNPGEHDRPVHEIDWRADRGDLVLTYAYAVMRDGATSNVVVLSADDIAVILKKADGADSPFSPWQWNPKAMWLKSAARQLAKWVPTSAEYVRLPDVPLESLPPAKPLDLPRVDDVVDAEIVEDWPTAPDDTADGAR
# B3: SSAP_173: SEQ ID NO: 342; Tyzzerella nexilis (protein, listed as Tyzzerella nexilis)
# chain: AGVKEELAKKAESTKGETKLTKSMSIADLIKAMEPEIKKALPEVITPERFTRMALSALNTTPKLRECTQMSFLAALMNAAQLGLEPNTPLGQAYLIPYNNKGVMECQFQIGYKGLIDLSYRNPQMQIISAQAVYENDDFSYELGLNPKLEHCPTLGERGEVRLFYGFFKLVNGGFGFEVMSKTAMDEYAKEYSKAFDSSFSPWKSNYIGMAKKTVIKQALKYAPLKTDFRKALSNDETIKTELSDDMSDIHGEEIWDVEYQEKTA
# B4: SSAP_210: SEQ ID NO: 379; Rufibacter latericius (protein, listed as Rufibacter latericius)
# chain: SNQLQVAREQVISAQKSFKNVPNNKLDFEREAGFAMQMIQSNPFLASMDANSIRNCIVNVALTGLTLNPVLKLAYLVPRKGKLILDPSYMGLINVLVTSGAAKKIEADVVCENDFFDYEKGTNGFIKHKPSLSSRGEIIAAYAIAHLPNGEVQFEIMNREELEKVRKSSEAAKKGSSPYDGWASEMMRKAPIRRLFKYLPKHNIPDQVINTLSLDEQNNGVDFSAQKQEAFKGKAADFFEDEPANTVDADYTDMSHEEADNELAA
# B5: SSAP_29: SEQ ID NO: 198 (protein)
# chain: STALATLAGKLAERVGMDSVDPQELITTLRQTAFKGDASDAQFIALLIVANQYGLNPWTKEIYAFPDKQNGIVPVVGVDGWSRIINENQQFDGMDFEQDDESCTCRIYRKDRNHPICVTEWMDECRRAPFKTREGREITGPWQSHPKRMLRHKAMIQCARLAFGFAGIYDKDEAERIVENTAYTTERQPERDITPVNEETMSEINALLTSMEKTWDDDLLPLCSQIFRRYIRASSELSQAEAEKVLGFLKQKATEQKVAA
# B6: SSAP_192: SEQ ID NO: 361; Streptococcus pyogenes (protein)
# chain: SDLSVAAAAAKTQPTMKDLVEAQLPAIERQLGGAMNSAAFVRAVLSEIGKSPDLMAADPKTLLGGVMLAAQLRLEIGSGLGEFYLTPRKERGRQICLPIIGYQGLIKLALRSEFVMNVQAFLVRQGDQFSYGANAERGMFYDWVPQDFEETRDWIGVVATARMRSGGTTWVYLTRTQVIDRRPSYWNSTPWKTNEDEMVKKTAVRALAKFLPKSTDLGRALEADEAKVQTLRGLDEVEVTRLDDEADTVVVQEQNPMSRTPEEQAEDAEAQR
# modifications: Streptococcus pyogenes
# B7: SSAP_152: SEQ ID NO: 321; Clostridiaceae bacterium (protein, listed as Clostridiaceae bacterium)
# chain: SNLKKALKTNETKGNSVTVSKAYAMKQLMIKMKGEITSALPTNLSSERFEKVALTAFNSNPKLQKCDPRTFIAAMMQSAQLGLEPNTALGLAYLIPYEVKGINKVQFQIGYKGLLELANRSGKLKTLYAHEVRENDEFDIDYGLEQKLIHKPLLKGNRGNVIGYYAVYHLEPSGYNFVFMTYDEVLEHGKKYSKSFEGGVWEKEFDSMAKKTVIKKLLKYAPLSIEMQKAIVFDESVKGSIDSDMLLVDKEDESIEGSELN
# B8: SSAP_288: SEQ ID NO: 457; Clostridium thermobutyricum (protein, listed as Clostridium thermobutyricum)
# chain: QSTGDIVFPQNYNYSNALKSAQLILAETVDRNKVPVLQSCSKPSICNALLDMVIQGLSPAKKQCYFVPYGGKLQLMKSYLGNIAATKRLKGVKDVFANVIYEGDVFEYKLNLNTGLIEIEKHEQKFENISKKILGAYAVVVRENQNNYVEVMNIEQIKNAWNQGAAKGNSQAHKNFAEEMAKKTVINRACKRFVNTSDDSDTLIESINRTNEYKEEDIIETTKSEVGEEIKENANTENLGLEDTEVVEAEVIENIEFEGDK
# B9: SSAP_190: SEQ ID NO: 359; Microbacterium laevaniformans OR221 (protein)
# chain: TDLSTVAAAAKQNPTMKDLVEAQLPAIERQLGGTMNSDAFVRAVLSEITKSPDLMQADPKTLLGGVMLAAQLRLEIGSGLGEFYLTPRKDHGRMICLPIVGFQGMVKLALRSEFVTNVQAFIVREGDDFTYGANAERGMFYDWTPKDFEEKRPMVGVVATARMKQGGTTWAYLTREQVEDRRPSYWQKTPWGSHPDEMAKKTAVRALAKYLPKATDLGRAIEADEQKVQHVKGLDEVTVTRLDDEPETVVVQETTDAWAATPVAEVQP
# modifications: Microbacterium laevaniformans
# notes: Microbacterium laevaniformans OR221
# B10: SSAP_191: SEQ ID NO: 360 in b312 (Table 9 prints 354); Microbacterium sp. K41 (protein, listed as Microbacterium sp.)
# chain: SKDLSTAAAAAKSQPTMKDLVEAQLPAIERQLGGAMNSDAFVRAVLSEIGKSPDLMNADPKTLLGGVMLAAQLRLEIGSGLGEFYLTPRKDRGRQICLPIIGYQGMIKLALRSEYVLNVQAFLVREGDDFTYGGNSERGMFYDWTPKDFEESRPWIGVVATAKMRGGGTTWVYLTRTQVIDRRPSYWASTPWKTNEDEMVKKTAVRALAKFLPKSTDLGRALEADEAKVQHLKGVDEVQVTRLDDDAETFVVQEQDPMSRTPEEQAEDEANR
# How the values were obtained:
# [1] = tested on: endogenous genome targets (ACTB, HSP90AA1); experiment: Arrayed SSAP library screening, mKate knock-in assay (editing efficiency); type: cell-based; conditions: average of HSP90 and ACTB, 3 days after transfection; for Editing Efficiency (Normalized, Average, two targets): fold over negative control (Flag_HA); for Editing Efficiency (Absolute, Average, two targets): percent of mKate knock-in
# Description: Arrayed SSAP library screening on endogenous genome targets (ACTB. HSP90AA1) using mKate knock-in assay.
# SSAP-encoding plasmids were purified and quantified.
# (§1) Each SSAP encoding plasmid was tested in duplicate, including a negative control (same plasmid encoding Flag_HA which is not expected to promote gene editing). Transfections were in 96-well plates and transfection efficiency was estimated to be 50%.
# (§2) Three days after transfection, mKate positive cells and cell viability were quantified across all replicates, along with positive (original RecT SSAP) and negative (Flag-HA control protein) controls. […] At the same time, the cell viability was measured by live cell counts via flow cytometry, to help quantify the fitness effect of SSAP on mammalian cells.
# (§3) SSAP proteins are identified by Uniparc deposit number and SEQ ID NO. Alignment numbers correspond to SSAPs in FIGS. 58, 59, and 60.
# mammalian cells = experiment: Arrayed SSAP library screening, cell viability by live cell counts via flow cytometry; type: cell-based
# Description: as §1, §2, §3
Molecule,"Editing Efficiency (Normalized, Average, two targets) [1]","Editing Efficiency (Absolute, Average, two targets) [1]","Cell Viability (Average, two targets) (mammalian cells)"
B1,4.616,11.4625,1.088
B2,4.599,11.375,0.9152
B3,4.674,11.55,0.8787
B4,6.484,16.05,0.408
B5,5.204,12.9225,1.131
B6,5.372,13.3,1.071
B7,6.574,16.25,1.159
B8,3.832,9.4725,0.6836
B9,5.26,13.025,1.044
B10,4.75,11.75,1.129
